From patent US20260176621A1, “Metabolically Stabilized Carbohydrate Targeting Ligands For Oligonucleotide Conjugates” (Arrowhead Pharmaceuticals, Inc., priority 2023, published 2026)

Tests used:
Format in all cases: in vivo, Cynomolgus monkey
APOC3 [1] = assay: Liver APOC3 mRNA expression by qPCR of liver biopsies (Example 5); details: for Rel. Exp. APOC3 (liver mRNA, qPCR, normalized to Day −6): 6.0 mg/kg SQ on Day 1; for inhibition of liver APOC3 transcripts: single 6.0 mg/kg SQ on Day 1
Method: (§1) On Day 1, three (n=3) male Cynomolgus monkey test animals for each test group were dosed with APOC3-PCSK9 RNAi agents formulated in saline (at 6.0 mg/kg), via subcutaneous (SQ) injection with syringe and needle in the mid-scapular region, at […] dose volume.
(§2) The liver biopsies and serum collected from the test animals were used for analysis for APOC3 and PCSK9 expression and additional biological parameters. Liver biopsies were collected on Day −6, Day 15, Day 36, Day 50, and Day 64 (post-mortem).
(§3) Liver biopsies were collected as a sedated procedure. Animals were fasted overnight (at least 12 hours but less than 18 hours) prior to each liver biopsy collection. For each animal, collected liver biopsy samples were of approximately 100 mg each (80 to 120 mg).
(§4) The collected liver biopsies were analyzed for APOC3 and PCSK9 expression and additional biological parameters. Liver APOC3 and PCSK9 mRNA expression levels were quantified via qPCR, using cARL1 as endogenous control gene, normalized to Day-6 (pre-dose).

PCSK9 [2] = assay: Liver PCSK9 mRNA expression by qPCR of liver biopsies (Example 5); details: for Rel. Exp. PCSK9 (liver mRNA, qPCR, normalized to Day −6): 6.0 mg/kg SQ on Day 1
Method: as §1, §2, §3, §4

PCSK9 [3] = assay: Serum PCSK9 by ELISA (Example 5); details: for Rel. Exp. PCSK9 (serum, ELISA, normalized to pre-dose): 6.0 mg/kg SQ on Day 1; for inhibition of serum PCSK9: single 6.0 mg/kg SQ on Day 1
Method: as §1
(§5) Serum blood (approximately 5.0 mL) was collected on Day −6, Day 8, Day 15, Day 22, Day 29, Day 36, Day 43, Day 50, […], prior to liver biopsy sample collections or dose administration (when applicable), and from any animals found in moribund condition or sacrificed at an unscheduled interval. The collection site was the femoral vein, with a saphenous vein as an alternative collection site.
Serum PCSK9 was quantified via ELISA (R&D Systems, Cat. #DPC900) in accordance with manufacturer's instructions. The relative PCSK9 levels were normalized to pre-dose Day −6.

APOC3 [4] = assay: Serum APOC3 by Roche Cobas assay (Example 5); details: for APOC3 (serum): 6.0 mg/kg SQ on Day 1; for inhibition of serum APOC3 relative to Day −6: single 6.0 mg/kg SQ on Day 1
Method: as §1, §5
Serum APOC3 was quantified via Roche Cobas® assay for APOC3 in accordance with manufacturer's instructions.

B1: AC003791: APOC3-PCSK9 dimer RNAi agent conjugate with (NAG52)s ligand, SEQ ID NO 14-16 (nucleic acid)
chain 1: AAGUUACAAAAGCAAAACG
chain 2: UCACUGAGAAUACUGUCCC
chain 3: CGUUUUGCUUUUGUAACUUGGGACAGUAUUCUCAGUNA
modifications: (NAG52)s ligand conjugate; modified_base 1 OTHER; 5'-cyclopropyl phosphonate-2'-O-methyladenosine; modified_base 1^2 OTHER; phosphorothioate linkage; modified_base 2 OTHER; 2'-fluoroadenosine; modified_base 2^3 OTHER; modified_base 3 gm; modified_base 4 um; modified_base 5 um; modified_base 6 OTHER; 2'-O-methyladenosine; modified_base 7 cm; modified_base 8 OTHER; modified_base; 5'-cyclopropyl phosphonate-2'-O-methyluridine; 2'-fluorocytidine; phosphor
- Rel. Exp. APOC3 (liver mRNA, qPCR, normalized to Day −6) (APOC3 [1]; Day 15): 0.408
- Rel. Exp. APOC3 (liver mRNA, qPCR, normalized to Day −6) (APOC3 [1]; Day 36): 0.611
- Rel. Exp. APOC3 (liver mRNA, qPCR, normalized to Day −6) (APOC3 [1]; Day 50): 0.336
- inhibition of liver APOC3 transcripts (APOC3 [1]; Day 50): approximately 66%
- Rel. Exp. APOC3 (liver mRNA, qPCR, normalized to Day −6) (APOC3 [1]; Day 64): 0.500
- inhibition of liver APOC3 transcripts (APOC3 [1]; Day 64): approximately 50%
- Rel. Exp. APOC3 (liver mRNA, qPCR, normalized to Day −6) (APOC3 [1]; Day −6 (pre-dose baseline)): 1.000
- Rel. Exp. PCSK9 (liver mRNA, qPCR, normalized to Day −6) (PCSK9 [2]; Day 15): 0.692
- Rel. Exp. PCSK9 (liver mRNA, qPCR, normalized to Day −6) (PCSK9 [2]; Day 36): 0.908
- Rel. Exp. PCSK9 (liver mRNA, qPCR, normalized to Day −6) (PCSK9 [2]; Day 50): 1.271
- Rel. Exp. PCSK9 (liver mRNA, qPCR, normalized to Day −6) (PCSK9 [2]; Day 64): 0.351
- inhibition of liver PCSK9 transcripts (PCSK9 [2]; Day 64, single 6.0 mg/kg SQ on Day 1): approximately 64%
- Rel. Exp. PCSK9 (liver mRNA, qPCR, normalized to Day −6) (PCSK9 [2]; Day −6 (pre-dose baseline)): 1.000
- Rel. Exp. PCSK9 (serum, ELISA, normalized to pre-dose) (PCSK9 [3]; Day 1): 1.161
- Rel. Exp. PCSK9 (serum, ELISA, normalized to pre-dose) (PCSK9 [3]; Day 8): 0.682
- Rel. Exp. PCSK9 (serum, ELISA, normalized to pre-dose) (PCSK9 [3]; Day 15): 0.415
- Rel. Exp. PCSK9 (serum, ELISA, normalized to pre-dose) (PCSK9 [3]; Day 22): 0.339
- Rel. Exp. PCSK9 (serum, ELISA, normalized to pre-dose) (PCSK9 [3]; Day 29): 0.353
- inhibition of serum PCSK9 (PCSK9 [3]; Day 36 (nadir)): approximately 67%
- Rel. Exp. PCSK9 (serum, ELISA, normalized to pre-dose) (PCSK9 [3]; Day 36): 0.323
- Rel. Exp. PCSK9 (serum, ELISA, normalized to pre-dose) (PCSK9 [3]; Day 43): 0.375
- Rel. Exp. PCSK9 (serum, ELISA, normalized to pre-dose) (PCSK9 [3]; Day 50): 0.759
- Rel. Exp. PCSK9 (serum, ELISA, normalized to pre-dose) (PCSK9 [3]; Day 57): 0.431
- Rel. Exp. PCSK9 (serum, ELISA, normalized to pre-dose) (PCSK9 [3]; Day 64): 0.538
- inhibition of serum PCSK9 (PCSK9 [3]; Day 64): approximately 46%
- Rel. Exp. PCSK9 (serum, ELISA, normalized to pre-dose) (PCSK9 [3]; Day −6 (pre-dose)): 0.925
- APOC3 (serum) (APOC3 [4]; Day 1): 6.48 mg/dL
- APOC3 (serum) (APOC3 [4]; Day 8): 4.57 mg/dL
- APOC3 (serum) (APOC3 [4]; Day 15): 4.03 mg/dL
- APOC3 (serum) (APOC3 [4]; Day 22): 2.92 mg/dL
- APOC3 (serum) (APOC3 [4]; Day 29): 3.69 mg/dL
- inhibition of serum APOC3 relative to Day −6 (APOC3 [4]; Day 36 (nadir)): approximately 51%
- APOC3 (serum) (APOC3 [4]; Day 36): 2.96 mg/dL
- APOC3 (serum) (APOC3 [4]; Day 43): 3.18 mg/dL
- APOC3 (serum) (APOC3 [4]; Day 50): 3.32 mg/dL
- APOC3 (serum) (APOC3 [4]; Day 57): 4.56 mg/dL
- APOC3 (serum) (APOC3 [4]; Day 64): 4.65 mg/dL
- inhibition of serum APOC3 relative to Day −6 (APOC3 [4]; Day 64): approximately 24%
- APOC3 (serum) (APOC3 [4]; Day −6 (pre-dose baseline)): 6.15 mg/dL
